Positions count from the first letter of the chain named. Names may count otherwise.
B1: 2-hydroxyacyl-CoA lyase from Actinomycetospora chiangmaiensis (WT AcHACL) (enzyme)
chain: MADRQDAERSGAGPARQSVPVASLVAEFLQEHGVDRVFGLQGGHIQPIWDQLARRGVRIVDVRDEGSAVHMAHAHTELTGQTAVAMVTAGPGVTNTVTAVANASVSRIPLLVIGGCPPIPQSNMGPLQDIPHTAILEPITRLARTLRSADQVLREFDEAWARASGDRGEPGPVYLEIPTDVLRRDVPPALQMREHLRAKPKRRPQPHPDDVAAVADLIRAAEKPAIISGRGARTTDGTDLVRLLDASGAAYLDTQESRGLVPDSHPAAVGSARSAVMRDTDLLITVGRQLDYQLGMGSPAVFPHAKVVRIADTASELIDNRRGEVEILAEPGAALAAIADALKDHTPDTSWRDELKAKHRKRAEDYRQALHSTENGADGHIHPNRIFGALDALDGDVLDLGETIMIADGGDLLSFGRLGITKARRYLDAGAFGCLGVATPFAIGAALAYPDRPVVAVTGDGAFGITATEIDTAVRHDAKIVVIVSNNRAWNIERYDQAENYGLVVGTDLADSDYAGVARAFGAHGERVTDPAELEGAIRRALANAPALVDVVTTQDAASPDSGKGLGFVPDYQALTPWNDAEVARRQEGI
notes: 2-hydroxyacyl-CoA lyase (AcHACL) of Actinomycetospora chiangmaiensis DSM 45062; residues up to 590 are named in the text; Crystallised with 2-HIB-CoA and dzThDP (7PT1) or ThDP (7PT4); also called actinobacterial 2-hydroxyacyl-CoA lyase
B2: AcHACL E493A mutant (enzyme)
chain: B1 chain with E493A
notes: 2-hydroxyacyl-CoA lyase (AcHACL) of Actinomycetospora chiangmaiensis DSM 45062 with E493A, made by site-directed mutation of the WT construct in pASG-IBA43; it says that the overall structure is identical to the WT (tetramer); also called alanine mutant; source: same protocol as WT)
B3: AcHACL E493Q mutant (enzyme)
chain: B1 chain with E493Q
notes: 2-hydroxyacyl-CoA lyase (AcHACL) of Actinomycetospora chiangmaiensis DSM 45062 with E493Q, made by site-directed mutation of the WT construct in pASG-IBA43; it says that the overall structure is identical to the WT (tetramer); source: same protocol as WT)

Molecular target: the molecule itself
Assay: crystal structure; sitting drop co-crystals of 10 mg/ml protein with 1 mM 2-HIB-CoA, 5 mM ADP, 5 mM MgCl2 and 5 mM dzThDP (or ThDP for the intermediate/product state); tetramer described as a dimer of dimers

Row | Protein | stoichiometry N | binding result
1 | B1 | 4 | –
2 | B2 | – | binds
3 | B3 | – | binds
